Data on three molecules can be found in patent US20160264648A1 (OSAKA UNIVERSITY, published 2016).

In test [1] the target is hemagglutinin (HA) of influenza A virus A/Brisbane/59/2007 (seasonal H1N1) (influenza A virus A/Brisbane/59/2007 (H1N1sea)). Description: cell-based or functional assay.
Test [2] deals with hemagglutinin (HA) of influenza A virus A/PR8/1934 (seasonal H1N1) (influenza A virus A/PR8/1934 (H1N1sea)) (UniProt P03452). In words: cell-based or functional assay.
Test [3] concerns the target hemagglutinin (HA) of influenza A virus A/Suita/104/2011 (H1N1pdm) (influenza A virus A/Suita/104/2011 (H1N1pdm)). In words: cell-based or functional assay.
Test [4] addresses hemagglutinin (HA) of influenza A virus A/Suita/105/2011 (H1N1pdm) (influenza A virus A/Suita/105/2011 (H1N1pdm)). Description: cell-based or functional assay.
Test [5] addresses hemagglutinin (HA) of influenza A virus A/Osaka/168/2009 (H1N1pdm) (influenza A virus A/Osaka/168/2009 (H1N1pdm)). Description: cell-based or functional assay.
The target of test [6] is hemagglutinin (HA) of influenza A virus A/Turkey/Wisconsin/1/1966 (H9N2) (influenza A virus A/Turkey/Wisconsin/1/1966 (H9N2)) (UniProt P03457). In words: cell-based or functional assay.
The target of test [7] is hemagglutinin (HA) of influenza A virus A/Suita/117/2011 (H1N1pdm) (influenza A virus A/Suita/117/2011 (H1N1pdm)). Description: cell-based or functional assay.
For test [8], the target named is hemagglutinin (HA) of influenza A virus A/PR8/1934 (seasonal H1N1) (influenza A virus A/PR8/1934 (H1N1sea), UniProt P03452 18-565). In words: cell-based or functional assay.
Test [9] addresses hemagglutinin (HA) of influenza A virus A/Turkey/Wisconsin/1/1966 (H9N2) (influenza A virus …, UniProt P03457 19-560). Description: cell-based or functional assay.
Test [10] deals with hemagglutinin (HA) of influenza A virus A/Aichi/2/1968 (H3N2) (influenza A virus A/Aichi/2/1968 (H3N2), UniProt P03437 17-566). In words: IFA on virus-infected MDCK cells.
Test [11] deals with hemagglutinin (HA) of influenza A virus A/Duck/Egypt/D1Br12/2007 (H5N1) (influenza A virus A/Duck/Egypt/D1Br12/2007 (H5N1)). Description: cell-based or functional assay.
Test [12] concerns the target hemagglutinin (HA) of influenza A virus A/Chicken/Egypt/R1MD12-3/2008 (H5N1) (influenza A virus A/Chicken/Egypt/RIMD12-3/2008 (H5N1)). Description: cell-based or functional assay.

With “mouse MAb C179 capable of exhibiting a broad reactivity with HAs belonging to group 1 (antibody)”, the Neutralization activity (VN50 value µg/ml) in test [1] came out at 5.57 µg/mL; in test [2], 3.1 µg/mL; in test [3] it was 5.98 µg/mL; in test [4], 3.11 µg/mL; in [5] it was 5.68 µg/mL; in test [6], 5.53 µg/mL. Moreover, the Neutralization activity (VN50 value µg/ml) in test [7] came to 5.73 µg/mL.

B1: human monoclonal antibody (HuMAb) 1H11 (antibody, V domains shown)
VH: QVQLVQSGAEVKKPGSSVKVSCKSSGGNFNNYAVSWVRQAPGQGLEWMGGISPIFGSTNHAQKFQGRVTISADIFTNTAYMELSSLRSDDTAIYYCARGRGYYFYHAMDVWGQGSTVTVSS
VL: QSALTQPASVSGSPGQSITISCTGTSSDVGGYNYVSWYQQHPGEAPKLMISDVSNRPSGVSNRFSGSKSGNTASLTISGLQAEDEADYYCTSYTSSNTLVFGGGTKLTVL
In the case of B1, the “Neutralization activity (VN50 value µg/ml)” value in test [8] was determined as 2.87 µg/mL; in test [9], 11.8 µg/mL; in test [1], 2.89 µg/mL; in test [11], 6.08 µg/mL; in test [12], 6.12 µg/mL; in test [3] it was 11.3 µg/mL. Besides, the Neutralization activity (VN50 value µg/ml) was found to be 11.4 µg/mL in test [4], 0.78 µg/mL in [5] and 11.6 µg/mL in test [7]. For the same molecule, the binding result in test [10] was “no binding”.

B2: human monoclonal antibody (HuMAb) 2H5 (antibody, V domains shown)
VH: B1 VH
VL: QSVLTQPPSVSAAPGQKVTISCSGSSSNIGHNFVSWYQQLPATAPKLLIYDTDKRPSGIPDRFSGSKSGTSATLGITGLQTGDEADYYCGTWDSSLSSVIFGGGTKLTVL
For the molecule B2, the “Neutralization activity (VN50 value µg/ml)” value in test [8] is 5.83 µg/mL; in [9], greater than 100 µg/mL; in [1], 5.53 µg/mL; in test [11] it was 6.05 µg/mL; in [12], 11.7 µg/mL; in test [3], 6 µg/mL. The Neutralization activity (VN50 value µg/ml) came to 6.21 µg/mL in test [4], 1.51 µg/mL in test [5] and 6.03 µg/mL in [7]. The binding result in test [10] is reported as “no binding”.
